The record followed here is patent US20110145940, “TAL EFFECTOR-MEDIATED DNA MODIFICATION” (published 2011).

This data set deals with AvrBs3 TALEN (BamHI fragment-FokI) (Xanthomonas campestris pv. vesicatoria, UniProt P14727 SEQ:26-1141). Briefly: cell_activity; yeast lacZ SSA assay, 18 bp spacer; optima 15 and 21 bp. The conditions noted are these: tags: FokI catalytic domain fusion, N-terminal NLS; chain copies: 2 (inferred); two sites in inverted orientation around spacer.

B1: AvrBs3 site (dsDNA)
DNA 1: ATATAAACCTAACCATCC
DNA 2: GGATGGTTAGGTTTATAT
In the case of B1, the activity was 15.8 fold over target-only control.
